Experimental findings from publication PMC8065144 are described below.

This experiment deals with HA-tagged Glial Lazarillo (GLaz-HA) (Drosophila). As to the kind of experiment: affinity purification on anti-HA beads and Western blot (bands of oligomers); GLaz-HA from larval brain extract concentrated on anti-HA beads, detected with anti-HA; the tetramers and dimers are destabilized into monomers by heat treatment or the reducing agent DTT. In general terms: In western blotting, separated proteins are transferred to a membrane and probed.

“And” between values parts separate entries of the source, which are not always exact repeats. Equal values may be shown once.

As to “HA-tagged Glial Lazarillo (GLaz-HA) (ligand)”, the stoichiometry N (as a rule, the number of molecules, sites or subunits per partner or assembly) was 4 and 2.
